One may read the Kd as the concentration at which binding is half-saturated. A word on the koff: it is a measure of how fast the partners let go of each other. Usually kon stands for a measure of how fast the partners come together.

In test [1] the target is biotinylated recombinant ESO157/HLA-A*02:02 complex (human). The experiment in a line: BLI (Octet QK), biotinylated pMHC on streptavidin sensor, BsAb 10 ug/mL.
For test [2], the target named is biotinylated recombinant ESO157/HLA-A*02:03 complex (human). Described as above.
In test [3] the target is biotinylated recombinant ESO157/HLA-A*02:06 complex (human). The test is described as above.
The target in test [4] is T1, biotinylated recombinant ESO157 wild type peptide/HLA-A*02:01 complex monomer (human).
T1 construct: also called recombinant ESO157/HLA-A*02:01 complex; biotin-labelled ESO157 wild type peptide/HLA-A*02:01 complex
The experiment in a line: SPR (Biacore X100), biotinylated pMHC on streptavidin chip, BsAb as analyte. In general terms: Surface plasmon resonance follows binding to a sensor surface in real time, without labels.

The target of test [5] is biotinylated recombinant ESO157/HLA-A*02:05 complex (human). The experiment in a line: BLI (Octet QK), biotinylated pMHC on streptavidin sensor, BsAb 10 ug/mL. (In general: BLI is a label-free optical method that tracks binding on a fibre tip over time.)
Test [6] addresses biotinylated recombinant ESO157/HLA-A*02:02 complex (human). The description is as above. This is another data set of the same source.
Test [7] addresses T2, HLA-A*02:01 on T2 cells without peptide loading (human).
T2 construct: TAP-deficient T2 cells, no peptide added; also called No peptide; T2 cells with no peptide loaded
The experiment in a line: FACS, peptide-pulsed T2 cells. (In general: A flow cytometer gives signals particle by particle.)

Test [8] has as its target ESO157 A4 peptide (…)/HLA-A*02:01 complex on T2 cells (human). The experiment in a line: FACS, peptide-pulsed T2 cells.
The target of test [9] is ESO157 A1 peptide (…)/HLA-A*02:01 complex on T2 cells (human). The experiment in a line: FACS, peptide-pulsed T2 cells.
The target in test [10] is ESO157 A5 peptide (…)/HLA-A*02:01 complex on T2 cells (human). The experiment in a line: FACS, peptide-pulsed T2 cells.
The target of test [11] is ESO157 A7 peptide (…)/HLA-A*02:01 complex on T2 cells (human). The experiment in a line: FACS, peptide-pulsed T2 cells.
Test [12] concerns the target T3, ESO157 wild type peptide (…)/HLA-A*02:01 complex on cells (human).
T3 construct: also called ESO157-loaded T2 cells
The experiment in a line: FACS, peptide-pulsed T2 cells.

Test [13] deals with ESO157 A3 peptide (…)/HLA-A*02:01 complex on T2 cells (human). The experiment in a line: FACS, peptide-pulsed T2 cells.
The target of test [14] is ESO157 A8 peptide (…)/HLA-A*02:01 complex on T2 cells (human). The experiment in a line: FACS, peptide-pulsed T2 cells.
The target of test [15] is ESO157 A6 peptide (…)/HLA-A*02:01 complex on T2 cells (human). The experiment in a line: FACS, peptide-pulsed T2 cells.
The target of a further test is T4, Bio-C9V mutant.
T4 construct: also called biotinylated ESO157 C9V/HLA-A*02:01 complex monomer
The experiment in a line: phage ELISA: streptavidin plate coated with biotinylated peptide/HLA-A*02:01 monomer, phage detected with HRP-conjugated anti-M13 antibody, absorbance at 450 nm.

B1: ESO157 BsAb #35 (anti-ESO157/HLA-A*02:01 scFv x anti-human CD3epsilon scFv, single chain) (bispecific antibody, not shown: small tags and cut ends)
scFv: QSVVTQPPSVSAAPGQKVTISCSGSSSNIGNNYVSWYQQLPGTAPKLLIYDNNKRPSGIPDRFSGSKSGTSATLGITGLQTGDEADYYCGTWDSSLSAWVFGGGTKLTVLGSRGGGGSGGGGSGGGGSLEMAQVQLVQSGAEVKKPGSSVKVSCKASGDTFSSYSISWVRQAPGQGLEWMGRIIPILGIANYAQKYQGRVTLSADKSTSTSYMELNSLRSEDTAVYYCARDWSYSIDYWGQGTLVTVSS
notes: also called NY-ESO-1 BsAb #35
Regarding B1, the Kd in test [1] is 22 nM; in test [2] it was 50 nM; in [3], 78 nM; in test [4], 14.1 nM. In addition, in test [4], the koff amounted to 0.00128 s⁻¹. In addition, in test [4], the kon amounted to 90900 M⁻¹ s⁻¹.

B2: ESO157 BsAb #52 (anti-ESO157/HLA-A*02:01 scFv x anti-human CD3epsilon scFv, single chain) (bispecific antibody)
chain: QSVLTQPPSVSGAPGQRVTISCTGSSSNIGAGYDVHWYQQLPGTAPKLLIYGDTNRPSGVPDRISGSKSGTSASLAITGLQAEDEADYYCQSYDSNLYTYVFGTGTKVTVLGSRGGGGSGGGGSGGGGSLEMAQVQLVQSGAEVKKPGASVKVSCKASGYTFTSYGISWVRQAPGQGLEWMGWISAYNGNTNYAQKLQGRVTMTTDTSTSTAYMELRSLRSDDTAVYYCARYSGYYAGDSWGQGTLVTVSS
Take B2: the Kd in test [2] turned out to be 82 nM; in test [5], 26 nM; in [3] it was 140 nM; in test [6], 63 nM.

B3: phage clone #66, anti-ESO157/HLA-A*02:01 scFv displayed on phage (scFv, V domains shown)
VH: EVQLVESGAEVKRPGASVKVSCKASGYTFTSYGISWVRQAPGQGLEWMGRFIPNLNKGNSAHKFEGRVSFTADKFTNTAYMELRGLKSDDTAVYYCARGDYGSDQWGQGTLVTVSS
VL: QSVLTQPPSVSGAPGQRVTISCTGSSSNIGAGYDVHWYQQLPGTAPKLLIYGNSNRPSGVPDRFSGSKSGTSASLAITGLQAEDEADYYCQSYDSSLSGSWVFGGGTKLTVLG
For the molecule B3, the MFI in [7] is 157; in test [8] it was 48100; in test [9] it was 82400; in test [10] it was 748; in [11] it was 64400; in test [12] it was 67000. Besides, the MFI in test [13] came out at 38400; in test [14] it was 90500; in [15] it was 19800. In the test with Bio-C9V mutant, the binding result is reported as “binds”.

B4: phage clone #52, anti-ESO157/HLA-A*02:01 scFv displayed on phage (scFv, V domains shown)
VH: QVQLVQSGAEVKKPGASVKVSCKASGYTFTSYGISWVRQAPGQGLEWMGWISAYNGNTNYAQKLQGRVTMTTDTSTSTAYMELRSLRSDDTAVYYCARYSGYYAGDSWGQGTLVTVSS
VL: QSVLTQPPSVSGAPGQRVTISCTGSSSNIGAGYDVHWYQQLPGTAPKLLIYGDTNRPSGVPDRISGSKSGTSASLAITGLQAEDEADYYCQSYDSNLYTYVFGTGTKVTVLG
As to B4, the MFI in [7] was found to be 113; in [8], 4740; in [9], 14900; in test [10], 107; in [11], 9890; in test [12], 14500. Besides, the MFI was determined as 17700 in [13], 19200 in [14] and 1880 in [15]. Also, the binding result with Bio-C9V mutant was “binds”.

B5: phage clone #116, anti-ESO157/HLA-A*02:01 scFv displayed on phage (scFv, V domains shown)
VH: QVQLVQSGPEVKKPGASMKVSCKASGYTFTKYGISWVRQAPGQGLEWMGWISADSGKTSYAQNLQGRVSLTIDTSTATAYMELRSLRSDDTAVYYCARDDDSWGQGTLVTVSS
VL: QSVLTQPPSVSAAPGQKVTISCSGSSSNIGNNYVSWYQQLPGTAPKLLIYDNNKRPSGIPDRFSGSKSGTSATLGITGLQTGDEADYYCGTWDSSLSAEVFGTGTKVTVLG
In the case of B5, the MFI in [7] was 502; in [8], 1150; in [9], 19600; in test [10], 1340; in test [11] it was 14400; in test [12], 11300. Moreover, the MFI in test [13] came out at 16500; in test [14], 3400; in [15] it was 2640. For the same molecule, the binding result with Bio-C9V mutant is given as “binds”.

The values are drawn from patent publication US20190382504A1 (EUREKA THERAPEUTICS, published 2019).
